Test: label from the status in PepcDB records
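Note: failed if final PepcDB status was selected cloned or expressed and not failed if soluble or beyond.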

MAKEKTLDDLFHDTLKDIYYAERKILKALPKMARAAQAPELKAAFEKHKEQTETHVERLQQVFEMIGKRAQGKTCEAIEGIVAEGEEIMDEFKGTAALDAGLISAAQAVEHYEISRYGTLKTWAKTIGLKDAVSLLDATLKEEVVTDEDLTKLAMAQVNKKAA
protein production: not failed

MAERSFSQLPISSSHIGRRTGNTRRGIFPVSEYWIHAIPVIVFLCFFTLWIFSHSVSVMNDGEIMSIHRLEKSMAVRNESHVSLAILASSAVSPASSALVAVVSTNQNLTTFHNATQSQQNATQSVNKAKQPHAV
protein production: not failed

MPLKKLIEIGSADFSVSTTACVLQLSHREVPVRGKQSKVISGVLADETARLPFTAWVELPGIDIGSIIRIEGAQIRMFRGMPSINFLEHHHHHH
protein production: failed

MRSYAIGDIHGHLSLLQEIHGRIAADRARTGDDEAPVVHIGDLVDRGPDSRGVVEYLRQGIEQGENWVVLKGNHDRMFAGFLRDPAHQDPGLRGDLSWLHPRLGGGPTLESYGVAHAADRPVAIVHREAVALVPAEHVAFIEALPAVYRRDEALFVHAGIRPGVPLAEQIEDDLVWIREPFLSDPRDHGMLVVHGHTAIDAVTHYGNRLNLDSGAAYGGPLSAVVIEGRSVWQLGPEGRRPIALEHHHHHH
protein production: failed

MCSTNKNLACCKGDNVFDGQINGNESYPQVVNKQLPPKVLEPIIQNKIVEIPKEVYLEKIVEVPQIKTVERIVEQIRPVIKYKNVYKPKIVYVEKVKNVDKIIYQEKIVEVPQIKTVEKIVEVPVYVNRERIITVPRYMVVEKVIPVLKTSKRESIMEVPEVNCPHIDISKEVEDKEEIPINELKENQTISLADEKEIQILNDLTSQKVDSNATINMEGEQDTTVDTITQENFCGTVSCNFLPNYPNFSKIGNPLCKGGPEKEKRFSSISIYKSKDSGFPSIRIAKTPQMFQRNLYCSYA
protein production: failed

MMRFLFVDRIVQLSPGEWIKGIKHVTRDDAYLTTDDHGRLCFMPSLIGETLGQLAAWNVMQHNHFTARPVAGVVSSARLYRPAYVGETILLESNIDSLDEKAVQYHSIAKVGNDIIFTIDGALGPMLPMTEFISTEVIRQQFAEIYRPGDWSSVLALSSPVLIEENCSDCGMINSSMQFDRILASQPGISLIAEKRITRSASYFPDHFPKRPVLPMTVLLECKLNLAKEFIARAKYDRAYRISELRKIKMNEFVHPGDVVVCQVKVKQQMDDELILSYRCEVDGKRVCVVDIVLIPKGK
protein production: failed

MCQMPCQFSWPYTHYFTQTKNKEKILNKLIVFTGGPGAGKTSVIEQLKTQGFICAPETGRHVIQMQVANHGSALPWNDKQAFRDEMTKEEVSNYRSFNVRQGDVFFDRSIVDVYGYSKLEQLPISHELITHCQTLRYHSQVFIFPPWASIFSNDEERKQDFSEAVATYQQMVDAYHKFGYQLIEVPKMSVEDRVAFILGSVIELEHHHHHH
protein production: not failed

MNGGKTAVIVLGWNGAADTLACLASLAKVRQPAFTVILADNGSTDGTVGLVRQAFPEVEILELGRNLGFAAGNNAAFRSLRGRGFDRVVFLNNDTVVDPGFLQPLLDELQKPWVGIAAPKILYMDDPGRIWYAGGVLESATGLIEHTGIRQPDGPRFDTPEPVWYATGCCLAMRCRVFEEVGGFDERFRMYGEDVDLSMKVRERGLIVMYQPASRIWHRVSASSGGEMNLGKQLRKSGAAMMLFAKHGMIGGLVLYPLLLPFRALLGLLRFQFFRWTSSQEREEA
protein production: failed

ISPGAAGGAEDGFFVPPTKGTSPTQIWCNNSQLPVDHILAGSFETAMRLLHDQVGVIQFGPYKQLFLQTYARGRTTYQALPCLPSMYGYPNRNWKDAGLKNGVPAVGLKLNDLIQRLQLCYQLTTVGKFEEAVEKFRSILLSVPLLVVDNKQEIAEAQQLITICREYIVGLSVETERKKLPKETLEQQKRICEMAAYFTHSNLQPVHMILVLRTALNLFFKLKNFKTAATFARRLLELGPKPEVAQQTRKILSACEKNPTDAYQLNYDMHNPFDICAASYRPIYRGKPVEKCPLSGACYSPEFKGQICRVTTVTEIGKDVIGLRISPLQFR
protein production: failed

MVIINTAAYHFVSITQPQTLADQIRAHGEIAGLKGTVLIANEGINLFLAGEKEAINAFYAWLCADVRFAALHVKYSVSAYKPFARFKVKVRPEIISFRRGDISPLQVRAPGVSAHTLRDWLRRGCDDNGRRLVMLDARNQQEIAYGTFSGAMTLPITKFTGFPGALAHYRDLLSDATVVSFCTGGIRCEKAVLWMRADGMDNVLQLEGGILGYFEQVGGEGYDGRCFVFDKRVALDPQLRPLYDMRVVASFARSEIS
protein production: failed

MGKKLDALLGRSFKTNKFKSLITLALTRLSILKNQRQARLSQAISDVTELLKLGQHEHAYHRVDQVVKDQNTLDVLFFIHGYFTLCLDRIHLFEHNRDCPEELLEAVSGLLFAASRIGEFPELQEIRNVLISRFGKDLAARSIELRSNCGVDPKIIQKLSTRPPPKEVRMKALKEIAAENNIVLKLDQASTSTEGTTNMQGTSDVSKTKLTSKDGRGEGYGLSDSVKRGKKKYKDVADAAQAAFESAAHAAEAAQAAVELSQFSPRGHDSPGNIGGENSFHGSENKESEQEQEGNDDSSEGEGDVMSESKRSMSDSEDIIDVPVMSFREDPVKLLEKDTIIYDSEEETQPSVETITISKSKDEQNRMVGSNRADTRHVDHMVRSIEDPIMRKAGLKGPVSVRTRQVRGY
protein production: failed

RRAKALLDFERHDDDELGFRKNDIITIISQKDEHCWVGELNGLRGWFPAKFVEVLDERSKEYSIA
protein production: not failed

MRRSKADVERYIASVQGSAPSPREKSMKGFYFAKLYYEAKEYDLAKKYISTYINVQERDPKAHRFLGLLYEVEENIDKAVECYKRSVELNPTQKDLVLKIAELLCKNDVTDGRAKYWVERAAKLFPGSPAIYKLKEQLLDCKGEDGWNKLFDLIQSELYARPDDIHVNIRLVELYRSNKRLKDAVAHCHEADRNTALRSSLEWNLCVVQTLKEYLESLQCLDSDKSTWRATNKDLLLAYANLMLLTLSTRDVQEGRELLESFDSALQSVKSSVGGNDELSATFLETKGHFYMHVGSLLLKMGQQSDIQWRALSELAALCYLVAFQVPRPKVKLIKGEAGQNLLETMAHDRLSQSGHMLLNLSRGKQDFLKEVVESFANKSGQSALCDALFSSQSSKERSFLGNDDIGNLDGQVPDPDDLARYDTGAVRAHNGSLQHLTWLGLQWNSLSTLPAIRKWLKQLFHHLPQETSRLETNAPESICILDLEVFLLGVIYTSHLQLKEKCNSHHTSYQPLCLPLPVCRQLCTERQKTWWDAVCTLIHRKALPGTSAKLRLLVQREINSLRGQEKHGLQPALLVHWAQSLQKTGSSLNSFYDQREYIGRSVHYWRKVLPLLKMIRKKNSIPEPIDPLFKHFHSVDIQASEIGEYEEDAHITFAILDAVNGNIEDAMTAFESIKNVVSYWNLALIFHRKAEDIENDALSPEEQEECKNYLRKTRDYLIRILDDSDSNTSVVQKLWYISKQQKFGIWGWEDCTSVRV
protein production: failed

MNLEKHASPDSVIVIDDLLPQHMDYASRQRNTTIWTGDVYRLVPILRHYRPDLDIRVYDVDMKGFGLVTRLDPSSDVLAGNYGAIEADILAGKWSFPTAAAIRDHMQPRATDLLANDLGIIAARRTAKASKQSDRRAAPALPQRRPRLSVIICAYDMAREAPRTILSATAPYQKGLKEDEYEVIVVDNGSSTPLTYDNLPPNAQIVRAPDPRQSPVFALNWAAREIAKGEILLFAIDGARIFSERLIDETVKAHDRMEDAFVFSLSWHIGPKVQMQSVPEGYGAEIEDGLIRAVRWPDESDGLFGISVLAGSSSNGFFGDITESNSFSISRTLFDRHGGFDERFTSPGGGLANLEIFRRYVTRPDARNVCLLSEGTFHQVHDSVATSGKNRWEAFASEYEAIFGGPYLRPSYHCFYQGKPRAGMVPFILQSLQG
protein production: failed

MKRTKKAFVLVLSLSMLASISPQTVLASGGNTDRYEEVHGTQAIVKDAEVHVYTTKNGGTVQLTGSNGIETTFTQGIGYREYKATPADGWRWKGWTYEQLYQGEDLGNRTDYGWGRRYSFSNDGSDWKSPYDGIGQTISVNRLLTTGETVGNKITYNLYADFNPTINATADTGGTIEDSGITEVEYGTNKQYTVTADTGKDIASVTVDGNSVLAETKKDSFTYTFENVTEPHTIHATFTDEIHTVSYEFVSGTAGEALPEEVSNLCPSSSTYTYGTEVTPTQPTSTSVKVSDGVWTFKGYDKENQTVTSDVKFTGTWTFAKNAVTINHIPTITAGDKTITVGDSFDPKKDVTASDKEDGSLTDRIEVINNTVNTSKVGTYTVTYKVTDKDGASVTKSITVTVKEKDKEEQTTVPTKPDNGNSTSTDTKKDASKTGQTVKTGDTSNVLLWSTIAILSLAGVVTVLFIKRRKSHS
protein production: failed

MSFYIQLASLSIIILYVLLLFRNVDPLVATAVCVGLGFLWNISTPIDIGNAMADALGSFMALVGFIIMLGRGLGEVLTHTQVSHTLVHQIVYGVGVNTQRRAKIGIVLSSFIIVGLLGTLAGGLAILAPSLRPIAGSVGLSRPSLAVLMQASAEEALILGPFAPPVVTLLGVTGLSYGTVFLYASLPIAVVTLITTWFMASRLQKLYINEPCEDENSTEPFTPNRQQKRVTLIFLISFLFCVVYGLFTQAKTSYVIFVMLFLALITGLSCRLGLKQIFNLLFEGMQKSLHLFFLFILFDPFMALIHQAGGFNALTELLTPLINLGGKPVLSILIGFTGAFGMPGAAEATIKMLHQLFSPSVLQMQLPLITFALCMLFATRVTNYAYPGANMFAAMGFAGSENVKAMIQNGLVVTGVQVAFLIVYSLFIP
protein production: failed

MSEGTLFVFTCDRPNGSSVIMCPGGGFLKTNLENEGIDFAEWFTKLGITYIVFKYRMPHGNPDVPEQDTRLALKVVREKFPEFCDKLGVMGASIGGYLATFSATLLPDDEKPDFQILMYPVVSVDDRLTHFPCRERMFGHSYSPDKMEQYSPIEHITSGTPAAFIVAAADDAVVSPLNGIMYAARLQKADIPISLHIYPAGGHGFGYNDSFVYKQEWLQELGEWLAKLLEHHHHHH
protein production: failed

MHSVPSTGFPQSEFSGPFWTGRGVACARPNRYVWTARPSDQSSRRMSTSFSRRLRRLQSQKETALCVGLDPVPARFPPSLQDGRLRTDAVRAFCTTIVEATAPYACAFKPNFAFFEALGPAGLTVLDQVVTTIPDDCLVLGDAKRGDIGHSARHYAASIYEELGLDACTVSPYLGRDSVMPFLEHEGTCTFVLARTSNDGAADLQEACTCDGTPLYRHVARRVQAWNADAPGGAGLVVGATAPAALQDLRSLCPSLPFLVPGVGAQGGDAAAVMDAAATDEGPVLVNSSRSILYASEGPNYANAAADAARALRDALNGGASSSRGAPSPPALEHHHHHH
protein production: failed

PREPVVNDEMCDVCEVWTAESLFPCRVCTRVFHDGCLRRMGYIQGDSAAEVTEMAHTETGWSCHYCDNINLLLTEE
protein production: not failed

MSAAPGLLHQELSCPLCLQLFDAPVTAECGHSFCRACLGRVAGEPAADGTVLCPCCQAPTRPQALSTNLQLARLVEGLAQVPQGHCEEHLDPLSIYCEQDRALVCGVCASLGSHRGHRLLPAAEAHARLKTQLPQQKLQLQEACMRKEKSVAVLEHQLVEVEETVRQFRGAVGEQLGKMRVFLAALEGSLDCEAERVRGEAGVALRRELGSLNSYLEQLRQMEKVLEEVADKPQTEFLMKYCLVTSRLQKILAESPPPARLDIQLPIISDDFKFQVWRKMFRALMPALEELTFDPSSAHPSLVVSSSGRRVECSEQKAPPAGEDPRQFDKAVAVVAHQQLSEGEHYWEVDVGDKPRWALGVIAAEAPRRGRLHAVPSQGLWLLGLREGKILEAHVEAKEPRALRSPERRPTRIGLYLSFGDGVLSFYDASDADALVPLFAFHERLPRPVYPFFDVCWHDKGKNAQPLLLVGPEGAEA
protein production: failed

MSEEKNTAIDLKNLKAGGFIKERGKDLFTVRLRVPGGRLPVGRLKKIAEVAEKYGQGMVHLSVRQSVELININFRDFDAVVAELGEGTQKVASCGARVRVPTACGGCEYNPNGLVDTQKSALEVDEKLFGIPTGHHKFKVGFAGCPFDCPKSATNDVGFQGAVWPVLSADHCIGCGLCAKSCTEDAIAMGDNGKPLFIPANCLYCGDCLKVCPTEAWRAGKKGYTVRIGGKWGRRPLVGTLFAEFLPEDQVVDFIAAVLGWYQEKAEGQGRIRLGDVIRAQGPEALLARLRERFPAFVVNATIAPQAIATQVGKEKQAHDNRLEHHHHHH
protein production: not failed

— a protein production outcome set (Wang et al. 2014)
